# B1: Aurora A (enzyme)
# chain: MDRSKENCISGPVKATAPVGGPKRVLVTQQFPCQNPLPVNSGQAQRVLCPSNSSQRIPLQAQKLVSSHKPVQNQKQKQLQATSVPHPVSRPLNNTQKSKQPLPSAPENNPEEELASKQKNEESKKRQWALEDFEIGRPLGKGKFGNVYLAREKQSKFILALKVLFKAQLEKAGVEHQLRREVEIQSHLRHPNILRLYGYFHDATRVYLILEYAPLGTVYRELQKLSKFDEQRTATYITELANALSYCHSKRVIHRDIKPENLLLGSAGELKIADFGWSVHAPSSRRTTLCGTLDYLPPEMIEGRMHDEKVDLWSLGVLCYEFLVGKPPFEANTYQETYKRISRVEFTFPDFVTEGARDLISRLLKHNPSQRPMLREVLEHPWITANSSKPSNCQNKESASKQS
# What was measured:
# [1] = target: p766-Gravin (human (endogenous in U2OS; cells of Figure 2E-H not stated)) (UniProt Q02952); assay: proximity ligation; in situ PLA in U2OS cells stably expressing the mother centriole marker myc-centriolin; signal at the mother spindle pole relative to the daughter spindle pole
# [2] = target: p766-Gravin (human (endogenous in U2OS; cells of Figure 2E-H not stated)) (UniProt Q02952); assay: proximity ligation; in situ PLA with antibodies to p766-Gravin and to Aurora A or Plk1 in fixed cells at different stages of the cell cycle; integrated signal per cell normalised to interphase cells; n = 3 experiments
# [3] = target: Gravin (human (endogenous in HEK293)) (UniProt Q02952)
Molecule,"fold PLA signal, mother against daughter spindle pole [1] [fold]","fold PLA signal, metaphase against interphase cells [2] [fold]","fold PLA puncta, mother against daughter spindle pole [1] [fold]",Kemptide (300 uM) phosphorylation (32P incorporation) in Gravin immune complexes isolated from mitotic lysates; share blocked by the Aurora A inhibitor VX-680 [3] [%]
polo-like kinase 1 (from UniProt P53350 1-603) (enzyme),2.35,10.3,–,–
B1,–,3.86,4.16,33.5
